Legend:
[1] = target: tubby-N (N-terminus of mouse tubby, 1M-242P), GST-free (mouse) (UniProt P50586); experiment: clonal phage on immobilized tubby-N, plaque assay
[2] = target: FLAG-tubby-F (full-length mouse tubby with N-terminal FLAG tag) (mouse) (UniProt P50586); experiment: clonal phage on immobilized FLAG-tubby-F, plaque assay
[3] = target: Axl-Fc (Axl extracellular domain fused to human IgG1 Fc fragment) (human); experiment: clonal phage on immobilized Axl-Fc, plaque assay

Sequence of FLAG-tubby-F (full-length mouse tubby with N-terminal FLAG tag) (mouse) (P50586 other isoform, or with tags, fused parts or gaps): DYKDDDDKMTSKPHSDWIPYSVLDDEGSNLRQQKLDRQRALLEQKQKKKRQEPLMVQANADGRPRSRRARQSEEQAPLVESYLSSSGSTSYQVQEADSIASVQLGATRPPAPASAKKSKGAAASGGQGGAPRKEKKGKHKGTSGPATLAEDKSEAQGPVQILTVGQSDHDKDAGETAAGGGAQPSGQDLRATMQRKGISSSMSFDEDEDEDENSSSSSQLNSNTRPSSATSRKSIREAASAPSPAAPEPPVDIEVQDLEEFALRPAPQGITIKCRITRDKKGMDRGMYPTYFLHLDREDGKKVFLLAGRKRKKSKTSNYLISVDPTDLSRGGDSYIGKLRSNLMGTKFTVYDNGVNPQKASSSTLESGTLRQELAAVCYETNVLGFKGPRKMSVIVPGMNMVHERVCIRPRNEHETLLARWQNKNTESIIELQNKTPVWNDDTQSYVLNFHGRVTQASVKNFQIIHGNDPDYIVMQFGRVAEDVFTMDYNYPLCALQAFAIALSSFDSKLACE
Sequence of tubby-N (N-terminus of mouse tubby, 1M-242P), GST-free (mouse) (P50586 1-242): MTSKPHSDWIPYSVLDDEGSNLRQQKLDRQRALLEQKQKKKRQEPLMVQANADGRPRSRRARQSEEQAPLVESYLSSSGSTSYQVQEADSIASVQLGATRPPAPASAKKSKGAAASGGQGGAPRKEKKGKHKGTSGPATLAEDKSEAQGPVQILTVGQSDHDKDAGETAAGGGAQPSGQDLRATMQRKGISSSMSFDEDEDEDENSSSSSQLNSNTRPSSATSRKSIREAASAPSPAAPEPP

Substance	Binding to tubby-N (binding specificity of clonal phage vs. control phage) [1]	Binding to tubby-F (binding specificity to FLAG-tubby-F vs. to GFP-FLAG) [2]	Binding activity (pfu ratio of clonal phage binding to immobilized Axl-Fc versus blank) [3]
Unknown protein encoded by Chromosome X Genomic contig, alternate assembly (NW_001035178, 7824017-7824523 bp), phage clone	40.1 X (fold)	3.1 X (fold)	–
PH180: Lectin, galactose binding, soluble 3 (Lgals3) 131Y-264I, phage clone (from UniProt P16110 131-264)	–	–	1380 X (fold)
Paf1/RNA polymerase II complex component (Rtf1) 69N-186K, phage clone (from UniProt A2AQ19 69-186)	–	6.2 X (fold)	–
High mobility group box 2-like 1 (Hmgb211) 170K-305G, phage clone	29.8 X (fold)	5 X (fold)	–

From US20110207628A1
